According to paper PMC10776498:

B1: GSDMD (gasdermin-D): S338A (protein)
parent chain: MGSAFERVVRRVVQELDHGGEFIPVTSLQSSTGFQPYCLVVRKPSSSWFWKPRYKCVNLSIKDILEPDAAEPDVQRGRSFHFYDAMDGQIQGSVELAAPGQAKIAGGAAVSDSSSTSMNVYSLSVDPNTWQTLLHERHLRQPEHKVLQQLRSRGDNVYVVTEVLQTQKEVEVTRTHKREGSGRFSLPGATCLQGEGQGHLSQKKTVTIPSGSTLAFRVAQLVIDSDLDVLLFPDKKQRTFQPPATGHKRSTSEGAWPQLPSGLSMMRCLHNFLTDGVPAEGAFTEDFQGLRAEVETISKELELLDRELCQLLLEGLEGVLRDQLALRALEEALEQGQSLGPVEPLDGPAGAVLECLVLSSGMLVPELAIPVVYLLGALTMLSETQHKLLAEALESQTLLGPLELVGSLLEQSAPWQERSTMSLPPGLLGNSWGEGAPAWVLLDECGLELGEDTPHVCWEPQAQGRMCALYASLALLSGLSQEPH
B2: GSDMD (gasdermin-D): TMG (protein)
parent chain: B1 parent chain

How the values were obtained:
[1] = western blot of GSDMD-N, HEK293T input; conditions: control: GSDMD-WT
[2] = western blot of GSDMD-N, HUVECs; conditions: glycan gained; control: HUVECs, LPS without TMG

Protein	other: proteolytic processing ([1]; glycan lost, LPS + TMG)	other: proteolytic processing ([1]; glycan gained, LPS without TMG)	other: proteolytic processing [2]
B1	increases		
B2		decreases	decreases
